# “And” between values parts separate entries of the source, which are not always exact repeats. Identical values can stand only once. Like-named read-outs stand apart in the source and are kept apart here.
# Tests used:
# Experiment in all cases: peptide-array ELISA [Con't]
# [1] = target: …2KCAPLRK2…
# [2] = target: EGCRL2…2…
# [3] = target: CGSR2…
# QNRI2…2RL = target: QNRI2…2RL
# …2SK2SPGQ [4] = target: …2SK2SPGQ
# [5] = target: CGWY2ALSKQEG2RL2CNASMDAV2TSTSPTRC
# …2…2TSTSPTRC = target: …2…2TSTSPTRC
# ALSKQEG2…2APGTFSN = target: ALSKQEG2…2APGTFSN
# …2RLCQA2TREQNRI2T2RPC = target: …2RLCQA2TREQNRI2T2RPC
# CLSKQEG2RL2…22SK2C = target: CLSKQEG2RL2…22SK2C
# CTV2DS2…2TSTSPTRC = target: CTV2DS2…2TSTSPTRC
# 2TREQNRI2…2RL = target: 2TREQNRI2…2RL
# CDVV2KP2…2TSTSPTRC = target: CDVV2KP2…2TSTSPTRC
# KQEG2…2APGTFSN = target: KQEG2…2APGTFSN
# CQTAQM22SK2…2RLC = target: CQTAQM22SK2…2RLC
# [6] = target: C22SK2…2CNASMDAV2TSTSPTRC
# [7] = target: DI2…
# [8] = target: …2…
# …2SK2SPGQ [9] = target: …2SK2SPGQ; remark: listed apart in the source
# NRI2…2RL = target: NRI2…2RL
# [10] = target: WVPE2…
# [11] = target: C22SK2…2CAPLRK2…
# [12] = target: Y2…
# 2LSCGSR2…2T = target: 2LSCGSR2…2T
# [13] = target: KQEGCRL2…2…
# CGSR2…2 = target: CGSR2…2
# [14] = target: CNASMDAV2…2…
# [15] = target: CQTAQM22SK2SPGQHCQA2TREQNRI2T2RPC
# …2LS2…2TSTSPTRC = target: …2LS2…2TSTSPTRC
# CG2RL2APLRK2…22SK2C = target: CG2RL2APLRK2…22SK2C
# [16] = target: LSCGSR2…
# [17] = target: QEGCRL2…
# …2R = target: …2R
# 2…2TREQNRIC = target: 2…2TREQNRIC
# [18] = target: 2LS2…2…
# LS2…2…2 = target: LS2…2…2
# E2LS2…2…2 = target: E2LS2…2…2
# [19] = target: C22SK2…2CAV2…
# [20] = target: 2…
# …22SK2CNASMDAV2TSTSPTRC = target: …22SK2CNASMDAV2TSTSPTRC
# V2…2NV = target: V2…2NV
# [21] = target: E2LSCGSR2…
# …2TSTSPTRC = target: …2TSTSPTRC
# 2LSCGSR2…2T2 = target: 2LSCGSR2…2T2
# [22] = target: PE2LSCGSR2…
# CTSSTDI2RPHQI2…2TSTSPTRC = target: CTSSTDI2RPHQI2…2TSTSPTRC
# CQA2TREQNRI2T2…2RLC = target: CQA2TREQNRI2T2…2RLC
# …2TREQNRIC = target: …2TREQNRIC
# [23] = target: C2LS2GSR2…2…
# S2…2RPGW = target: S2…2RPGW
# …2N = target: …2N
# 2LS2…2R = target: 2LS2…2R
# PE2LS2…2…2 = target: PE2LS2…2…2
# Chain of …2R (peptide, as listed by the source): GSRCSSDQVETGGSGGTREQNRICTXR
# Chain of QEGCRL2… (peptide, as listed by the source): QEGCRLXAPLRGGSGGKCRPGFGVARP
# Chain of …2N (peptide, as listed by the source): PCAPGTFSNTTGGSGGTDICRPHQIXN
# Chain of LSCGSR2… (peptide, as listed by the source): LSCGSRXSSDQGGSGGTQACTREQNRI
# Chain of …2TREQNRIC (peptide, as listed by the source): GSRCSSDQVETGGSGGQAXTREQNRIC
# Chain of …2… (peptide, as listed by the source): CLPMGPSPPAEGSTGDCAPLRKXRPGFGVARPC
# Chain of …2TSTSPTRC (peptide, as listed by the source): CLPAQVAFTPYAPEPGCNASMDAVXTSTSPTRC
# Chain of Y2… (peptide, as listed by the source): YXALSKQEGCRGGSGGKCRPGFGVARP
# Chain of DI2… (peptide, as listed by the source): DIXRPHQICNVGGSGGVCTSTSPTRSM
# Chain of CGSR2… (peptide, as listed by the source): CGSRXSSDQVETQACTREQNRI
substance,measurement,setting,value
agonistic TNFR2 antibody MR2-1,Raw luminescence data,[1],151
same,Raw luminescence data,[2],155
same,Raw luminescence data,[3],153
same,Raw luminescence data,QNRI2…2RL,151
same,Raw luminescence data,…2SK2SPGQ [4],156 and 153
same,Raw luminescence data,[5],156
same,Raw luminescence data,…2…2TSTSPTRC,156
same,Raw luminescence data,ALSKQEG2…2APGTFSN,151
same,Raw luminescence data,…2RLCQA2TREQNRI2T2RPC,150
same,Raw luminescence data,CLSKQEG2RL2…22SK2C,156
same,Raw luminescence data,CTV2DS2…2TSTSPTRC,182
same,Raw luminescence data,2TREQNRI2…2RL,186
same,Raw luminescence data,CDVV2KP2…2TSTSPTRC,191
same,Raw luminescence data,KQEG2…2APGTFSN,180
same,Raw luminescence data,CQTAQM22SK2…2RLC,179
same,Raw luminescence data,[6],181
same,Raw luminescence data,[7],174
same,Raw luminescence data,[8],180
same,Raw luminescence data,…2SK2SPGQ [9],181 and 173
same,Raw luminescence data,NRI2…2RL,184
same,Raw luminescence data,[10],186 and 181
same,Raw luminescence data,[11],191
same,Raw luminescence data,[12],175
same,Raw luminescence data,2LSCGSR2…2T,176
same,Raw luminescence data,[13],191
same,Raw luminescence data,CGSR2…2,172
same,Raw luminescence data,[14],173
same,Raw luminescence data,[15],176
same,Raw luminescence data,…2LS2…2TSTSPTRC,188
same,Raw luminescence data,CG2RL2APLRK2…22SK2C,183
same,Raw luminescence data,[16],181
same,Raw luminescence data,[17],173
same,Raw luminescence data,…2R,180
same,Raw luminescence data,2…2TREQNRIC,184
same,Raw luminescence data,[18],190
same,Raw luminescence data,LS2…2…2,187
same,Raw luminescence data,E2LS2…2…2,181
same,Raw luminescence data,[19],181
same,Raw luminescence data,[20],179
same,Raw luminescence data,…22SK2CNASMDAV2TSTSPTRC,173
same,Raw luminescence data,V2…2NV,177
same,Raw luminescence data,[21],189
same,Raw luminescence data,…2TSTSPTRC,172
same,Raw luminescence data,2LSCGSR2…2T2,179
same,Raw luminescence data,[22],180
same,Raw luminescence data,CTSSTDI2RPHQI2…2TSTSPTRC,181
same,Raw luminescence data,CQA2TREQNRI2T2…2RLC,178
same,Raw luminescence data,…2TREQNRIC,176
same,Raw luminescence data,[23],187
same,Raw luminescence data,S2…2RPGW,177
same,Raw luminescence data,…2N,175
same,Raw luminescence data,2LS2…2R,181
same,Raw luminescence data,PE2LS2…2…2,262
